# Results published in the RNAGym collection of RNA variant scans (doi:10.1073/pnas.2313332121).
# This sample holds only a part of the variants without activity.
# B1: TPR 5TU (parent)
# chain: GGAUCUUCUCGAUCUAACAAAAAAGACAAAUCUGCCACAAAGCUUGAGAGCAUCUUCGGAUGCAGAGGCGGCAGCCUUCGGUGGCGCGAUAGCGCCAACGUUCUCAACUAUGACACGCAAAACGCGUGCUCCGUUGAAUGGAGUUUAUCAUG
# Variants of: B1
# Assay: polymerase ribozyme fitness, log enrichment relative to wild type (log ratio); higher = more active; in vitro selection for triplet polymerase activity
# In short: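 Only genotypes with ≥10 input reads and ≥1 read per output were kept after Illumina sequencing of input and output libraries. These libraries were PCR-built, transcribed mutants of each subunit of a heterodimeric triplet polymerase ribozyme, each put through one triplicate in vitro selection round with frozen incubation at −7 °C, gel excision of extended constructs, streptavidin-bead capture and RT-PCR. Fitness is a logarithmic ratio of genotype enrichment to wild-type enrichment, from inverse-variance-weighted replicate averages, with the logarithm in base 2.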
row,Variant,polymerase ribozyme fitness (log ratio)
1,GGAUCUUCUCGAUCUAACAAAAAAGACAAAUCUGCCACAAAGCUUGAGAGCAUCUUCGGAUGCAGAGGCGGCAGCUUUCGGUGGUGCGAUAGCGCCAACGUUCUCAACUAUGACACGCAAAACGCGUGCUCCGUUGACUGGAGAUUAUCAUG,≤ -4.2
2,GGAUCUUCUCGAUCUAACAAAAAAGACAAAUCUGCCACAAAGCUUGAGAGCAUCUUCGGAUGCAGAGGCGGCAGCGUUCGGUAGCGCGAUAGCGCCAACGUUCUCAACUAUGACACGCAAAACGCGUGCUCCGUUGAAAGGAGUUCACCAUG,≤ -4.2
3,GGAUCUUCUCGAUCUAACAAAAAAGACAAAUCUGCCACAAAGCUUGAGAGCAUCUUCGGAUGCAGAGGCGGCAGCUUUCGGUGGCGAGAUGGCGCCAACGUUCUCAUCUAUGACACGCAAAACGCAUGCUCCGUUGAAUGGAGUAUAUCAUG,≤ -4.2
4,GGAUCUUCUCGAUCUAACAAAAAAGACAAAUCUGCCACAAAGCUUGAGAGCAUCUUCGGAUGCAGAGGCGGCAGCGUUCGGUGGGGCGAUAACGCCAACGUUCUCAACUAUGACACGCACAACGCGUGUUCCGUUGAAUGGAGUUUAUCAUG,≤ -4.2
5,GGAUCUUCUCGAUCUAACAAAAAAGACAAAUCUGCCACAAAGCUUGAGAGCAUCUUCGGAUGCAGAGGCGGCAGCUUUCGGUGGCGCGAUAGCGCCAACGUUCUCAACUAUGACACGCAAAUCGCGUGCUCCGUUGAAUGGAGUUUAUCAUG,0.0697
6,GGAUCUUCUCGAUCUAACAAAAAAGACAAAUCUGCCACAAAGCUUGAGAGCAUCUUCGGAUGCAGAGGCGGCAGCUUUCGGUGGCGUGAUAGCGCCAACGUUCUCAACUAUGACACGCAAAACGCGUGCUCCGUUGAAUGGAGUUUAUCAUG,-0.242
7,GGAUCUUCUCGAUCUAACAAAAAAGACAAAUCUGCCACAAAGCUUGAGAGCAUCUUCGGAUGCAGAGGCGGCAGCUUUCGGUGGCGCGAUAGCGCCAACGUUCUCAACUAUGACACGCAAUACGCGUGCUCCGUUGAAUGGAGUUUAUCAUG,0.67
8,GGAUCUUCUCGAUCUAACAAAAAAGACAAAUCUGCCACAAAGCUUGAGAGCAUCUUCGGAUGCAGAGGCGGCAGCGUUCGGUGGCGCGAUAGCUCGAACGUUCUCAACUAAGACACGCAAAACGCGUGCUCCGUUGAAUGGAGUUUAUCAUG,≤ -4.2
9,GGAUCUUCUCGAUCUAACAAAAAAGACAAAUCUGCCACAAAGCUUGAGAGCAUCUUCGGAUGCAGAGGCGGCAGCGUUCGGUGGCGCGAUAGUGCCAACGUUCUCAACUAUGACACGCAAAACGCGUGCUCCGUUGAAUGGAGUUUAUCAUG,≤ -4.2
10,GGAUCUUCUCGAUCUAACAAAAAAGACAAAUCUGCCACAAAGCUUGAGAGCAUCUUCGGAUGCAGAGGCGGCAGCGUUCGGUGGCGCGAUAGCGCAAACGUUCUCAACUAUGACACGCAAAACGCGUGCUCCGUUGAAUAGAGUUUAUCAUG,≤ -4.2
11,GGAUCUUCUCGAUCUAACAAAAAAGACAAAUCUGCCACAAAGCUUGAGAGCAUCUUCGGAUGCAGAGGCGGCAGCUUUCGGUGGCGCGAUAGCGCCAACGUUCUCAACUAUGACACGCAAAACGCGUGCUCCGUUGGAUGGAGUUUAUCAUG,-0.882
12,GGAUCUUCUCGAUCUAACAAAAAAGACAAAUCUGCCACAAAGCUUGAGAGCAUCUUCGGAUGCAGAGGCGGCAGCUUUUGGUUGCGCGAUAGCACCAACGUUCUUAACUAUGACACGGAAAACGCGUGCUCGGUUAAAUGGAGUUUAUCAUG,≤ -4.2
13,GGAUCUUCUCGAUCUAACAAAAAAGACAAAUCUGCCACAAAGCUUGAGAGCAUCUUCGGAUGCAGAGGCGGCAGCUUUAGGUGGCGCGAUAGUGCCAACGUUCUCAACUAUGACAAGAAAAACGCGUGCUCCGUUGAAUGGAGUUUAUCAUG,≤ -4.2
14,GGAUCUUCUCGAUCUAACAAAAAAGACAAAUCUGCCACAAAGCUUGAGAGCAUCUUCGGAUGCAGAGGCGGCAGCUUUCGGUGGUGCGAUAGCGCCAACGCUCUCAACUAUGACACGCAAAACGCGUGCUCCGUUGAAUGGAGUGUAUCAUG,-0.2
15,GGAUCUUCUCGAUCUAACAAAAAAGACAAAUCUGCCACAAAGCUUGAGAGCAUCUUCGGAUGCAGAGGCGGCAGCUUUCGGUGGCGUGAUAGCGCCAACGUUCUCAACUAUGACAAGCAAAUCGCGUGCUCCGUUGAAUGGAGUUGAUCAUG,-3.7
16,GGAUCUUCUCGAUCUAACAAAAAAGACAAAUCUGCCACAAAGCUUGAGAGCAUCUUCGGAUGCAGAGGCGGCAGCUUUCGGUGGCGCGAUAGCGCCAACGUUCUCAACUAUGACACGCCAAAUGCGUGCUCCGUUGAAUGGAGUUUAUCAUG,0.258
17,GGAUCUUCUCGAUCUAACAAAAAAGACAAAUCUGCCACAAAGCUUGAGAGCAUCUUCGGAUGCAGAGGCGGCAGCUUUCGGUGGAGCGAUAGCGCCAACGUUCUCAACUAUGACACGCAAAACGCGUGCUCCGUUGAAUGGAGUUUAUCAUG,-2.44
18,GGAUCUUCUCGAUCUAACAAAAAAGACAAAUCUGCCACAAAGCUUGAGAGCAUCUUCGGAUGCAGAGGCGGCAGCUUUCGGUGGGGCGAUAGCGCCAACGUUCUCAACUAUGACACGCAAAACGCGUGCUCCGUUGAAUGGAGUUUAUCAUG,-0.632
19,GGAUCUUCUCGAUCUAACAAAAAAGACAAAUCUGCCACAAAGCUUGAGAGCAUCUUCGGAUGCAGAGGCGGCAGCGUUCGGUGGCGCGAUAGCGCAAACGUUCGCAACUAUCACACGCAAAACGCGUGCUCCGUUGAAUGGAGUUUAUCAUG,≤ -4.2
